One substance from patent publication US20180243665A1 can be followed below.

Test [1] deals with monoclonal IgG antibody in clarified CHO cell supernatant. Description: affinity chromatography, 3-column PCC, 1.5 g/L mAb feed, 45% breakthrough, 0.5 min residence time.
Test [2] shares this target. Description: affinity chromatography, 3-column PCC, undiluted supernatant feed, 2.5 min residence time, column switch at 5% breakthrough.

As to “SpA variant ligands (tetramers of Zvar), covalently coupled via a C-terminal cysteine to crosslinked agarose beads (designed binder)”, the dynamic capacity in test [1] turned out to be 43 g/L. Also, the dynamic binding capacity in test [2] was 54 g/L.
